# B1: LHFPL tetraspan subfamily member 5 protein (Homo sapiens), Q8TAF8 (parent)
# chain: MVKLLPAQEAAKIYHTNYVRNSRAVGVMWGTLTICFSVLVMALFIQPYWIGDSVNTPQAGYFGLFSYCVGNVLSSELICKGGPLDFSSIPSRAFKTAMFFVALGMFLIIGSIICFSLFFICNTATVYKICAWMQLAAATGLMIGCLVYPDGWDSSEVRRMCGEQTGKYTLGHCTIRWAFMLAILSIGDALILSFLAFVLGYRQDKLLPDDYKADGTEEV
# partner: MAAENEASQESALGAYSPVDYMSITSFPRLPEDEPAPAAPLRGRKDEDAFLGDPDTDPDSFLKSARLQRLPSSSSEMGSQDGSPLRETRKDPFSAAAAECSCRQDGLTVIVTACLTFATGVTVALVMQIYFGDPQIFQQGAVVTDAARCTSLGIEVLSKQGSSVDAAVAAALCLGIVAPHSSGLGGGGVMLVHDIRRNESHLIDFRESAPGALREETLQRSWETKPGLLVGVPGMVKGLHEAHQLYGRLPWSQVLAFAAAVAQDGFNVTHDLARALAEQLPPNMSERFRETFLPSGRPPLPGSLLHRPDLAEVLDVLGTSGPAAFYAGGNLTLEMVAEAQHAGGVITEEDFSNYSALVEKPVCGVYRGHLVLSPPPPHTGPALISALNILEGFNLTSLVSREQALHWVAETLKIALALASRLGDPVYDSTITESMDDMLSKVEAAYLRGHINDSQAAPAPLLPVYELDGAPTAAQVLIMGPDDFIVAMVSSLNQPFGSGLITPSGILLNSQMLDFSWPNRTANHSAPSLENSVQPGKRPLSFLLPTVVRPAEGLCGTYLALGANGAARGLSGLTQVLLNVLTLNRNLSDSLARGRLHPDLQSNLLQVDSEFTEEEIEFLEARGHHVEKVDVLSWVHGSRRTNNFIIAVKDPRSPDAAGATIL
# B2: EF-hand domain-containing protein 1 (Homo sapiens), Q5JVL4 (parent)
# chain: MVSNPVHGLPFLPGTSFKDSTKTAFHRSQTLSYRNGYAIVRRPTVGIGGDRLQFNQLSQAELDELASKAPVLTYGQPKQAPPADFIPAHVAFDKKVLKFDAYFQEDVPMSTEEQYRIRQVNIYYYLEDDSMSVIEPVVENSGILQGKLIKRQRLAKNDRGDHYHWKDLNRGINITIYGKTFRVVDCDQFTQVFLESQGIELNPPEKMALDPYTELRKQPLRKYVTPSDFDQLKQFLTFDKQVLRFYAIWDDTDSMYGECRTYIIHYYLMDDTVEIREVHERNDGRDPFPLLMNRQRVPKVLVENAKNFPQCVLEISDQEVLEWYTAKDFIVGKSLTILGRTFFIYDCDPFTRRYYKEKFGITDLPRIDVSKREPPPVKQELPPYNGFGLVEDSAQNCFALIPKAPKKDVIKMLVNDNKVLRYLAVLESPIPEDKDRRFVFSYFLATDMISIFEPPVRNSGIIGGKYLGRTKVVKPYSTVDNPVYYGPSDFFIGAVIEVFGHRFIILDTDEYVLKYMESNAAQYSPEALASIQNHVRKREAPAPEAESKQTEKDPGVQELEALIDTIQKQLKDHSCKDNIREAFQIYDKEASGYVDRDMFFKICESLNVPVDDSLVKELIRMCSHGEGKINYYNFVRAFSN
# Variants of: B1
# Conditions: with ggt7_human GGT7, Q9UJ14
row,effect of a mutation on the interaction,Variant
1,disrupting interaction strength,Y127C
2,disrupting interaction strength,T165M

# Variants of: B2
# Conditions: with ikzf3_human IKZF3, Q9UKT9
# Sequence of ikzf3_human IKZF3, Q9UKT9 (Q9UKT9 whole entry): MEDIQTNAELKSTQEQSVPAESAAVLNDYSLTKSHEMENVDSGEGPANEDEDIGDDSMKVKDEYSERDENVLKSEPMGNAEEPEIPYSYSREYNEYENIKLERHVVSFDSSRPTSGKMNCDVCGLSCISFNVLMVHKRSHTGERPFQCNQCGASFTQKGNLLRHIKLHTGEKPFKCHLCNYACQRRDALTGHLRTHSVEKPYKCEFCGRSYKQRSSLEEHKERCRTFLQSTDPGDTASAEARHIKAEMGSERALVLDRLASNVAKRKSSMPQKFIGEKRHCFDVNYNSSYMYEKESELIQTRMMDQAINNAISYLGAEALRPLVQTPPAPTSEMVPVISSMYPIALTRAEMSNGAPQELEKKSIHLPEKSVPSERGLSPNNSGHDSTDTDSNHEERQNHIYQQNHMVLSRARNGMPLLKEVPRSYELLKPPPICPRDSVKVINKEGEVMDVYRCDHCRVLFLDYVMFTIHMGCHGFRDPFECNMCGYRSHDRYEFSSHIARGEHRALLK
row,Variant,effect of a mutation on the interaction
1,R159W,with no effect
2,P77T,disrupting interaction strength

# Next, values leading:
row,effect of a mutation on the interaction,Variant
1,with no effect,M448T
2,disrupting interaction strength,A394S
3,disrupting interaction strength,R221H

# Variants of: B2
# Conditions: with kctd4_human KCTD4, Q8WVF5
# Sequence of kctd4_human KCTD4, Q8WVF5 (Q8WVF5 whole entry): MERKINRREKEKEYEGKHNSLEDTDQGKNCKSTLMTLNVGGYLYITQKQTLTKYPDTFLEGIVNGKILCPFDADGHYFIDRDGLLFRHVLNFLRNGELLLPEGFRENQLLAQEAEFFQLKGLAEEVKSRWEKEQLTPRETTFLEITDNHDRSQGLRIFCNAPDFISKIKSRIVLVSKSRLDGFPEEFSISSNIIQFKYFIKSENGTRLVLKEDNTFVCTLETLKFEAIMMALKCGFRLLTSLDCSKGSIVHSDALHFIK
row,Variant,effect of a mutation on the interaction
1,R159W,with no effect
2,P77T,disrupting interaction strength

# Other lines, results leading:
row,effect of a mutation on the interaction,Variant
1,with no effect,M448T
2,disrupting interaction strength,A394S
3,disrupting interaction strength,R221H

# Variants of: B2
# Conditions: with rim3a_human RIMBP3, Q9UFD9
# Sequence of rim3a_human RIMBP3, Q9UFD9 (Q9UFD9 whole entry): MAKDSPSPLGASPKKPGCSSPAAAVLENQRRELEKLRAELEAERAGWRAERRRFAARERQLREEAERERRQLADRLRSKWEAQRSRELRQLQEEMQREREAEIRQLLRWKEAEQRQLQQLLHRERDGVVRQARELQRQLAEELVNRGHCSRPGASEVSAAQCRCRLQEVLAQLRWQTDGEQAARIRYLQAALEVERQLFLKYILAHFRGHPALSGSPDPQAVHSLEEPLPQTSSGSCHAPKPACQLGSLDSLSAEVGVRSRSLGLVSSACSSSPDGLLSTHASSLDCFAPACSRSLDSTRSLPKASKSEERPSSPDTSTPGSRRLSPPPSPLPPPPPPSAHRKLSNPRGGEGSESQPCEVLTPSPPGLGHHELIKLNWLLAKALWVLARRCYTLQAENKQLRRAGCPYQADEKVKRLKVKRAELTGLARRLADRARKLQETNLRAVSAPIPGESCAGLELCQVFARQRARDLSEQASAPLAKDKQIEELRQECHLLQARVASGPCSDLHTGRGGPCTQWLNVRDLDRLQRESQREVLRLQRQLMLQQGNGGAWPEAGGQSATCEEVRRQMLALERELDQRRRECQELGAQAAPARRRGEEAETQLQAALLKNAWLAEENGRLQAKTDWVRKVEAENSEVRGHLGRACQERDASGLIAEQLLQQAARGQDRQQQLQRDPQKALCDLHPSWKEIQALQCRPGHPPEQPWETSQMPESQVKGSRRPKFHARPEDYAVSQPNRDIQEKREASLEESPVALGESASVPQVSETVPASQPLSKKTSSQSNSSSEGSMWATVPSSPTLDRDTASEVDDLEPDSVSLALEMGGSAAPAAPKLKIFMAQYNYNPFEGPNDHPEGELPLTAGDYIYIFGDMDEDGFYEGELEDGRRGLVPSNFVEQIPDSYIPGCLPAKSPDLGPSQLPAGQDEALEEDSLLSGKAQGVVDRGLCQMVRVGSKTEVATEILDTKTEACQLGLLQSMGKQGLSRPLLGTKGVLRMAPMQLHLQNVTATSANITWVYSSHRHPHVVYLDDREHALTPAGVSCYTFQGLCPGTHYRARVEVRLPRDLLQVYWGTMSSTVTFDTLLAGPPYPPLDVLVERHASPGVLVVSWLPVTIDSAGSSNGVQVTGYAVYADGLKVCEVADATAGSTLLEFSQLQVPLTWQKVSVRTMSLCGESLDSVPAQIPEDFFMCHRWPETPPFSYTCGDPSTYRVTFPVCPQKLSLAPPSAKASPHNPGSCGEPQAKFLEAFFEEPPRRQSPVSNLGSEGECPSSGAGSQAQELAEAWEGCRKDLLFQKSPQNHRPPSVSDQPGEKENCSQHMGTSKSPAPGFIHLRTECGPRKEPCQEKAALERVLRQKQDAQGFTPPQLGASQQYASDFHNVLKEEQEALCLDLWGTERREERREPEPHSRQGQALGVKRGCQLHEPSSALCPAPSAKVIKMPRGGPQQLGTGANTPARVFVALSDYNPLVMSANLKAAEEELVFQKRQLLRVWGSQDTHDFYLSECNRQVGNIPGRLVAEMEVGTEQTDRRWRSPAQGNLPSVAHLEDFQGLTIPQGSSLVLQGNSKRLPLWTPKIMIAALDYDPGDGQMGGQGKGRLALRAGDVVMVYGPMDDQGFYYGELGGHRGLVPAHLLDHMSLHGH
row,Variant,effect of a mutation on the interaction
1,R159W,with no effect
2,P77T,disrupting interaction strength

# Second part, the variant after the results:
row,effect of a mutation on the interaction,Variant
1,with no effect,M448T
2,disrupting interaction strength,A394S
3,disrupting interaction strength,R221H

# Variants of: B2
# Conditions: with trip6_human TRIP6, Q15654
# Sequence of trip6_human TRIP6, Q15654 (Q15654 whole entry): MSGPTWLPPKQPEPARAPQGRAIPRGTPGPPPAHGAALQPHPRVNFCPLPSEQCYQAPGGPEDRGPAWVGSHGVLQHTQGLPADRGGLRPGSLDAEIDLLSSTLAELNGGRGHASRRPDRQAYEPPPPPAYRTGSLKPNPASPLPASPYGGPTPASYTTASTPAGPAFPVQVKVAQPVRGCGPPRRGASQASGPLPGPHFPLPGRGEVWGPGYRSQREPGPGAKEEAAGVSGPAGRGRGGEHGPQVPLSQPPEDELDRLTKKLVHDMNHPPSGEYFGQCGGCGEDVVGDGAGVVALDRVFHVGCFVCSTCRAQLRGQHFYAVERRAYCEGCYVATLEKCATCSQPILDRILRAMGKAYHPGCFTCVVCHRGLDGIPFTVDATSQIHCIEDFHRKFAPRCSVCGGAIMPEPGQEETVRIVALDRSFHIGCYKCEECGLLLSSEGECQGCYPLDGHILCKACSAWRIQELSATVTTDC
row,Variant,effect of a mutation on the interaction
1,R159W,with no effect
2,P77T,disrupting interaction strength

# Now from value to variant:
row,effect of a mutation on the interaction,Variant
1,with no effect,M448T
2,disrupting interaction strength,A394S
3,disrupting interaction strength,R221H

# Variants of: B2
# Conditions: with KRT15, P19012
# Sequence of KRT15, P19012 (P19012 whole entry): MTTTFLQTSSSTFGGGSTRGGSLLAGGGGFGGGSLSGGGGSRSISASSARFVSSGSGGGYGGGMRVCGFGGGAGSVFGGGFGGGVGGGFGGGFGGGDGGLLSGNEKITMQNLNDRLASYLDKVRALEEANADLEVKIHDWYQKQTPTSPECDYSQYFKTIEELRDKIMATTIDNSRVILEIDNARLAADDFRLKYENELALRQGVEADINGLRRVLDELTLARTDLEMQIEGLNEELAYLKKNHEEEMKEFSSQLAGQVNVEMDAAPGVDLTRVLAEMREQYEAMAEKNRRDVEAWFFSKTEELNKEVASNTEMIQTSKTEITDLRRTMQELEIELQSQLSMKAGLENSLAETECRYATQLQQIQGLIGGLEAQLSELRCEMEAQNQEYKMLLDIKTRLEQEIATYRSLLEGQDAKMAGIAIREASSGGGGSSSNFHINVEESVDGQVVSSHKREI
row,Variant,effect of a mutation on the interaction
1,R159W,with no effect
2,P77T,disrupting interaction strength

# Second part, the variant after the results:
row,effect of a mutation on the interaction,Variant
1,with no effect,M448T
2,disrupting interaction strength,A394S
3,disrupting interaction strength,R221H

# Variants of: B2
# Conditions: with TCF4, P15884-3
# Sequence of TCF4, P15884-3 (P15884 other isoform, or with tags, fused parts or gaps): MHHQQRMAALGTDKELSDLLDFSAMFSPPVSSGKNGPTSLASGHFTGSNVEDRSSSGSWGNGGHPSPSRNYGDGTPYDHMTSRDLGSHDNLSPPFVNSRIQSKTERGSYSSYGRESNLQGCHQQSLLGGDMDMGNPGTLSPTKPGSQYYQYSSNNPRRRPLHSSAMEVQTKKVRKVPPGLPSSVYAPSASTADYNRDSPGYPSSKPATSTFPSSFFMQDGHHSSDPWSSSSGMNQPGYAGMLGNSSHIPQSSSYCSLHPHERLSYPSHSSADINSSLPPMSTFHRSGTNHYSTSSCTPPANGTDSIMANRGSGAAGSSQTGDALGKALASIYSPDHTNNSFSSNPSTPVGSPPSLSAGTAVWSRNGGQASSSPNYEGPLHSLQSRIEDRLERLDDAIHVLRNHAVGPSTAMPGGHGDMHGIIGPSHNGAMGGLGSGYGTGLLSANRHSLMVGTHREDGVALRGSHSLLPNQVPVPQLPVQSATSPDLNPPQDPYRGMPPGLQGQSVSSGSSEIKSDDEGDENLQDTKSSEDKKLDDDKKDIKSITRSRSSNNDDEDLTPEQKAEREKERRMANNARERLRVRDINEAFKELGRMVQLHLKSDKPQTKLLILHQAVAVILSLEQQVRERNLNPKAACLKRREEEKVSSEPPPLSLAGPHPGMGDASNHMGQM
row,Variant,effect of a mutation on the interaction
1,R159W,with no effect
2,P77T,disrupting interaction strength

# Continued, values first:
row,effect of a mutation on the interaction,Variant
1,with no effect,M448T
2,disrupting interaction strength,A394S
3,disrupting interaction strength,R221H

# Variants of: B2
# Conditions: with goga2_human GOLGA2, Q08379
# Sequence of goga2_human GOLGA2, Q08379 (Q08379 whole entry): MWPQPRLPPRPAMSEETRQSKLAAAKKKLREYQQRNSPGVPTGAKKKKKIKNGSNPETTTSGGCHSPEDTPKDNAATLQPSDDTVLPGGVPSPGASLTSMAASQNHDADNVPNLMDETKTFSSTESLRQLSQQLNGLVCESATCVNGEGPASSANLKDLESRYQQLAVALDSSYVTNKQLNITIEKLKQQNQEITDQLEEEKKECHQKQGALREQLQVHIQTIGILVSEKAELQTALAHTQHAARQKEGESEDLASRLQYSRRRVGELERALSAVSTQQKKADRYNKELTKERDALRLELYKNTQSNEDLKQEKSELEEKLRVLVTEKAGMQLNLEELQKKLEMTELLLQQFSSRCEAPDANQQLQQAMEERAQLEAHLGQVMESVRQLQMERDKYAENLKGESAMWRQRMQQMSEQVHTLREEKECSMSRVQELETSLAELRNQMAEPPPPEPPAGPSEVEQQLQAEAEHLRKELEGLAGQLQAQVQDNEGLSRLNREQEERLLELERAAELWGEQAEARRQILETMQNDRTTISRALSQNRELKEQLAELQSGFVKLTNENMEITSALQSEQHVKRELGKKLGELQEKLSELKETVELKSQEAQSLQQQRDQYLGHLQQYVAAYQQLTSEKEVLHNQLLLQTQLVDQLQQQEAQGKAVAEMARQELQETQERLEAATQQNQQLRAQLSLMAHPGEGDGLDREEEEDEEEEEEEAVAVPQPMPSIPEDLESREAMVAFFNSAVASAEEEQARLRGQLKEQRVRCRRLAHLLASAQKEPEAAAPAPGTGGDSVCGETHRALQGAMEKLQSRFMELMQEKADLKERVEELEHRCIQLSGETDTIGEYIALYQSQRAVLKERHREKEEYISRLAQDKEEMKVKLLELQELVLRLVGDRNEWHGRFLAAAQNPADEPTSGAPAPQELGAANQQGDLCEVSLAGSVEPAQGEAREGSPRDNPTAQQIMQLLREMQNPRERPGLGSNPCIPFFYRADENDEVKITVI
row,Variant,effect of a mutation on the interaction
1,R159W,with no effect
2,P77T,disrupting interaction strength

# Now from value to variant:
row,effect of a mutation on the interaction,Variant
1,with no effect,M448T
2,disrupting interaction strength,A394S
3,disrupting interaction strength,R221H

# From IntAct's records for PubMed 25910212
